Results from article doi:10.1101/2023.12.15.571702.

Molecular target: piperazate synthase PipS, C-terminal His6-tagged (holo-PipS) (Streptomyces griseus subsp. griseus NRRL F-5144)
Assay: crystal structure

Substance: piperazate synthase PipS, C-terminal His6-tagged (holo-PipS) (enzyme)
- stoichiometry N: 2
